{
  "source": "IntAct's records for PubMed 32296183",
  "parents": {"B1": {"name": "Ceroid-lipofuscinosis neuronal protein 6 (Homo sapiens), Q9NWW5 (parent)", "chain": "MEATRRRQHLGATGGPGAQLGASFLQARHGSVSADEAARTAPFHLDLWFYFTLQNWVLDFGRPIAMLVFPLEWFPLNKPSVGDYFHMAYNVITPFLLLKLIERSPRTLPRSITYVSIIIFIMGASIHLVGDSVNHRLLFSGYQHHLSVRENPIIKNLKPETLIDSFELLYYYDEYLGHCMWYIPFFLILFMYFSGCFTASKAESLIPGPALLLVAPSGLYYWYLVTEGQIFILFIFTFFAMLALVLHQKRKRLFLDSNGLFLFSSFALTLLLVALWVAWLWNDPVLRKKYPGVIYVPEPWAFYTLHVSSRH", "partner": "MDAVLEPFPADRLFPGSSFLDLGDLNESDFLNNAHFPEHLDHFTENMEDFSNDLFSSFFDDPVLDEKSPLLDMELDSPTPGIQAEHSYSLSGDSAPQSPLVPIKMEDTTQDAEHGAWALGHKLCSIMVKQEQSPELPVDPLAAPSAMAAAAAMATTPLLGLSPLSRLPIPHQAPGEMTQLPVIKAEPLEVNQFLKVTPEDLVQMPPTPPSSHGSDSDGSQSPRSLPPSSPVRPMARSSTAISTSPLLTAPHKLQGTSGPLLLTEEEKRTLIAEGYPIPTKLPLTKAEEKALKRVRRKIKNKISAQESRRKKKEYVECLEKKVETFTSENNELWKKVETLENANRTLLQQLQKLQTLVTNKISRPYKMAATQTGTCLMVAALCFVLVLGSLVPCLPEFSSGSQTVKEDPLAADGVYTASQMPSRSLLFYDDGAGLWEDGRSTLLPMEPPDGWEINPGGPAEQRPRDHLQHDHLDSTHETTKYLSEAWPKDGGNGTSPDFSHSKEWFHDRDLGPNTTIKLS"}, "B2": {"name": "Ceroid-lipofuscinosis neuronal protein 6 (Homo sapiens), Q9NWW5 (parent)", "chain": "B1 chain", "partner": "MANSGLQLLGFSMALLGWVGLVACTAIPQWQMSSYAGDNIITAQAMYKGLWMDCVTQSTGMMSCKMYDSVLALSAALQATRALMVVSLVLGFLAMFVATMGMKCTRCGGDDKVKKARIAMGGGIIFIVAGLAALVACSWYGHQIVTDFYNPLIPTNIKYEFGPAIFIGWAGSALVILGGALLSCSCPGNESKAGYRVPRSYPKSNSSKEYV"}, "B3": {"name": "Succinate--CoA ligase [ADP-forming] subunit beta, mitochondrial (Homo sapiens), Q9P2R7 (parent)", "chain": "MAASMFYGRLVAVATLRNHRPRTAQRAAAQVLGSSGLFNNHGLQVQQQQQRNLSLHEYMSMELLQEAGVSVPKGYVAKSPDEAYAIAKKLGSKDVVIKAQVLAGGRGKGTFESGLKGGVKIVFSPEEAKAVSSQMIGKKLFTKQTGEKGRICNQVLVCERKYPRREYYFAITMERSFQGPVLIGSSHGGVNIEDVAAESPEAIIKEPIDIEEGIKKEQALQLAQKMGFPPNIVESAAENMVKLYSLFLKYDATMIEINPMVEDSDGAVLCMDAKINFDSNSAYRQKKIFDLQDWTQEDERDKDAAKANLNYIGLDGNIGCLVNGAGLAMATMDIIKLHGGTPANFLDVGGGATVHQVTEAFKLITSDKKVLAILVNIFGGIMRCDVIAQGIVMAVKDLEIKIPVVVRLQGTRVDDAKALIADSGLKILACDDLDEAARMVVKLSEIVTLAKQAHVDVKFQLPI", "partner": "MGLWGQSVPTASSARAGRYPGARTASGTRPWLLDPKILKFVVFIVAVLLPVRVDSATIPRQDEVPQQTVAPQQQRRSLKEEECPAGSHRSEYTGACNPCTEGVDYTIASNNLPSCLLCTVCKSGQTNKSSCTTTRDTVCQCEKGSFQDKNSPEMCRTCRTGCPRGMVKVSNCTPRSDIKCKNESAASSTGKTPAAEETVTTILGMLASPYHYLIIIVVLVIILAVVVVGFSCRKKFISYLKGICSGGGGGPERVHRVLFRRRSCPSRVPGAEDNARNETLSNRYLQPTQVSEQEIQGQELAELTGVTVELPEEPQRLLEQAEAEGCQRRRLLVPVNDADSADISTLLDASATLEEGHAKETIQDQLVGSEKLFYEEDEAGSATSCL"}, "B4": {"name": "Very-long-chain enoyl-CoA reductase (Homo sapiens), Q9NZ01 (parent)", "chain": "MKHYEVEILDAKTREKLCFLDKVEPHATIAEIKNLFTKTHPQWYPARQSLRLDPKGKSLKDEDVLQKLPVGTTATLYFRDLGAQISWVTVFLTEYAGPLFIYLLFYFRVPFIYGHKYDFTSSRHTVVHLACICHSFHYIKRLLETLFVHRFSHGTMPLRNIFKNCTYYWGFAAWMAYYINHPLYTPPTYGAQQVKLALAIFVICQLGNFSIHMALRDLRPAGSKTRKIPYPTKNPFTWLFLLVSCPNYTYEVGSWIGFAIMTQCLPVALFSLVGFTQMTIWAKGKHRSYLKEFRDYPPLRMPIIPFLL", "partner": "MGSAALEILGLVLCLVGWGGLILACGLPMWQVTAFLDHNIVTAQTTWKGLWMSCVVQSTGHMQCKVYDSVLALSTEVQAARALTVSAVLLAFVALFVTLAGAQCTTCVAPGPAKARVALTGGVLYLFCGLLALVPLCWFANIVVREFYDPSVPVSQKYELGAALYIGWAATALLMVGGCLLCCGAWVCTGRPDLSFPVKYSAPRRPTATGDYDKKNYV"}, "B5": {"name": "Very-long-chain enoyl-CoA reductase (Homo sapiens), Q9NZ01 (parent)", "chain": "B4 chain", "partner": "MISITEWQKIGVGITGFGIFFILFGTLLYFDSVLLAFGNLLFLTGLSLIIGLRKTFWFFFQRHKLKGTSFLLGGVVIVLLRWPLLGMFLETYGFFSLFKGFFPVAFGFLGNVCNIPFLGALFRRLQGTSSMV"}, "B6": {"name": "Golgi SNAP receptor complex member 2 (Homo sapiens), O14653 (parent)", "chain": "MDPLFQQTHKQVHEIQSCMGRLETADKQSVHIVENEIQASIDQIFSRLERLEILSSKEPPNKRQNARLRVDQLKYDVQHLQTALRNFQHRRHAREQQERQREELLSRTFTTNDSDTTIPMDESLQFNSSLQKVHNGMDDLILDGHNILDGLRTQRLTLKGTQKKILDIANMLGLSNTVMRLIEKRAFQDKYFMIGGMLLTCVVMFLVVQYLT", "partner": "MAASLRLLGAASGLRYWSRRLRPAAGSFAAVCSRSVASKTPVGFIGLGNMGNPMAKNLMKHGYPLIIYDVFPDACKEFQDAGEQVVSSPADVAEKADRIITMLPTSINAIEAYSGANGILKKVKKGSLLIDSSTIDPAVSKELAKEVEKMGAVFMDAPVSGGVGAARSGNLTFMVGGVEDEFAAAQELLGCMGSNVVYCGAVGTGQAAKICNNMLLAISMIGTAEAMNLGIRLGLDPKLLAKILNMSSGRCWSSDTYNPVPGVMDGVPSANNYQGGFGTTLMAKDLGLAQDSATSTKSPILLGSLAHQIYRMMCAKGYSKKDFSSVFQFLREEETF"}, "B7": {"name": "Catenin alpha-3 (Homo sapiens), Q9UI47-2 (parent)", "chain": "MSAETPITLNIDPQDLQVQTFTVEKLLEPLIIQVTTLVNCPQNPSSRKKGRSKRASVLLASVEEATWNLLDKGEKIAQEATVLKDELTASLEEVRKESEALKVSAERFTDDPCFLPKREAVVQAARALLAAVTRLLILADMIDVMCLLQHVSAFQRTFESLKNVANKSDLQKTYQKLGKELENLDYLAFKRQQDLKSPNQRDEIAGARASLKENSPLLHSICSACLEHSDVASLKASKDTVCEEIQNALNVISNASQGIQNMTTPPEPQAATLGSALDELENLIVLNPLTVTEEEIRPSLEKRLEAIISGAALLADSSCTRDLHRERIIAECNAIRQALQDLLSEYMNNAGKKERSNTLNIALDNMCKKTRDLRRQLRKAIIDHVSDSFLDTTVPLLVLIEAAKNGREKEIKEYAAIFHEHTSRLVEVANLACSMSTNEDGIKIVKIAANHLETLCPQIINAALALAARPKSQAVKNTMEMYKRTWENHIHVLTEAVDDITSIDDFLAVSGMFLFF", "partner": "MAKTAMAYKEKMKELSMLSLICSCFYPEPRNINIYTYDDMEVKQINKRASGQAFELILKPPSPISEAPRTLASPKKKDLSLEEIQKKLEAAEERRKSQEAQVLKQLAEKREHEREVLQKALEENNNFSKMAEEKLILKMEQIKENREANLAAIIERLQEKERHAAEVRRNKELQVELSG"}, "B8": {"name": "Golgi SNAP receptor complex member 2 (Homo sapiens), O14653 (parent)", "chain": "B6 chain", "partner": "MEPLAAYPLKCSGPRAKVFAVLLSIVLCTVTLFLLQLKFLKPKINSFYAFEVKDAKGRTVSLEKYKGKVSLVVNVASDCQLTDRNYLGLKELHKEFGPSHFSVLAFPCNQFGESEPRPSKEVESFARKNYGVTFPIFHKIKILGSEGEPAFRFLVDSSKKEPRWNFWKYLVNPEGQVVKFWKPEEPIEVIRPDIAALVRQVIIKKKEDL"}, "B9": {"name": "Very-long-chain enoyl-CoA reductase (Homo sapiens), Q9NZ01 (parent)", "chain": "B4 chain", "partner": "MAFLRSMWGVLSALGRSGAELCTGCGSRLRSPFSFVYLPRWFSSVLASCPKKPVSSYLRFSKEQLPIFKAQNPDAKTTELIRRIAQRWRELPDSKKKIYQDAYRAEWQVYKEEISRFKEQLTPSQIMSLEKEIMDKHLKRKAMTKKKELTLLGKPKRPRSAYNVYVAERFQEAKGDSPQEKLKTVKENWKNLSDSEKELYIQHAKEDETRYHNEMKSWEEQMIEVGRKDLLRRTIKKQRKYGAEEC"}, "B10": {"name": "Golgi SNAP receptor complex member 2 (Homo sapiens), O14653 (parent)", "chain": "B6 chain", "partner": "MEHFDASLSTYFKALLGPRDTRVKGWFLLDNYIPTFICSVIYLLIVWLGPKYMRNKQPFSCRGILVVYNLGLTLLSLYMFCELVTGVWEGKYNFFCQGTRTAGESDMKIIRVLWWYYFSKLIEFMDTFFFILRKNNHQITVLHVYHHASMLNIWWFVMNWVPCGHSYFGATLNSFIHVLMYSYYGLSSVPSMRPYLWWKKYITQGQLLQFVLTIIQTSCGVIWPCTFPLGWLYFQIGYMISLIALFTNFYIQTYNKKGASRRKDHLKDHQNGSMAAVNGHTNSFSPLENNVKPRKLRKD"}, "B11": {"name": "Golgi SNAP receptor complex member 2 (Homo sapiens), O14653 (parent)", "chain": "B6 chain", "partner": "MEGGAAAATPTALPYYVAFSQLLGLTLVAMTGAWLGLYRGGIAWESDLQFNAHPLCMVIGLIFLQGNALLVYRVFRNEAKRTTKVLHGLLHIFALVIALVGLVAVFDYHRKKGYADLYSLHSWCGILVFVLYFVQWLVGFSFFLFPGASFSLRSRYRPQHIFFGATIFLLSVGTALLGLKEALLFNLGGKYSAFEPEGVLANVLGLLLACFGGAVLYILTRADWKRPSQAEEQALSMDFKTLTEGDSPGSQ"}, "B12": {"name": "Very-long-chain enoyl-CoA reductase (Homo sapiens), Q9NZ01 (parent)", "chain": "B4 chain", "partner": "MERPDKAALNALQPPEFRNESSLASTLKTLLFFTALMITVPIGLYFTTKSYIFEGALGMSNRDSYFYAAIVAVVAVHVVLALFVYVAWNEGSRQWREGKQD"}},
  "data": [
    {"variants_of": "B1", "conditions": "with cr3l1_human CREB3L1, Q96BA8", "values": [
      {"variant": "L47F", "effect of a mutation on the interaction": "with no effect"},
      {"variant": "G123D", "effect of a mutation on the interaction": "with no effect"},
      {"variant": "R6T", "effect of a mutation on the interaction": "with no effect"}
    ]},
    {"variants_of": "B2", "conditions": "with cld7_human CLDN7, O95471", "values": [
      {"variant": "R6T", "effect of a mutation on the interaction": "disrupting interaction strength"},
      {"variant": "G123D", "effect of a mutation on the interaction": "with no effect"}
    ]},
    {"variants_of": "B3", "conditions": "with tr10d_human TNFRSF10D", "values": [
      {"variant": "G118R", "effect of a mutation on the interaction": "disrupting interaction strength"},
      {"variant": "D251N", "effect of a mutation on the interaction": "disrupting interaction strength"}
    ]},
    {"variants_of": "B4", "conditions": "with cld5_human CLDN5, O00501", "values": [
      {"variant": "P182L", "effect of a mutation on the interaction": "disrupting interaction strength"}
    ]},
    {"variants_of": "B5", "conditions": "with got1a_human GOLT1A", "values": [
      {"variant": "P182L", "effect of a mutation on the interaction": "with no effect"}
    ]},
    {"variants_of": "B6", "conditions": "with 3hidh_human HIBADH", "values": [
      {"variant": "G144W", "effect of a mutation on the interaction": "disrupting interaction strength"}
    ]},
    {"variants_of": "B7", "conditions": "with stmn2_human STMN2, Q93045", "values": [
      {"variant": "V94D", "effect of a mutation on the interaction": "with no effect"}
    ]},
    {"variants_of": "B8", "conditions": "with gpx8_human GPX8, Q8TED1", "values": [
      {"variant": "G144W", "effect of a mutation on the interaction": "with no effect"}
    ]},
    {"variants_of": "B9", "conditions": "with tfam_human TFAM", "values": [
      {"variant": "P182L", "effect of a mutation on the interaction": "disrupting interaction strength"}
    ]},
    {"variants_of": "B10", "conditions": "with elov5_human ELOVL5, Q9NYP7", "values": [
      {"variant": "G144W", "effect of a mutation on the interaction": "with no effect"}
    ]},
    {"variants_of": "B11", "conditions": "with cy561_human CYB561, P49447", "values": [
      {"variant": "G144W", "effect of a mutation on the interaction": "with no effect"}
    ]},
    {"variants_of": "B12", "conditions": "with vma21_human VMA21, Q3ZAQ7", "values": [
      {"variant": "P182L", "effect of a mutation on the interaction": "disrupting interaction strength"}
    ]}
  ]
}
